Source: the nanobody polyreactivity screen of Harvey et al. (2022)

Assay: yeast display, Sf9 membrane polyspecificity reagent, FACS + sequencing; frameworks hold sequencing errors
Outline: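 Nanobodies from a synthetic yeast display library (Saccharomyces cerevisiae BJ5465), induced 36–48 hours with galactose, were stained 1 hour at 4 °C with 10% biotinylated, detergent-solubilized Sf9 membrane reagent, enriched on streptavidin microbeads, then FACS-sorted. Anti-HA (expression) and streptavidin (reagent binding) fluorescence set low and high (top ~1%) gates. Polyreactivity labels come from the gate of origin. Genes were colony-PCR amplified, MiSeq 2 × 250 sequenced and filtered by CDR length.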

Sequence | polyreactivity (PSR sort gate)
QVQLVESGGGLVQAGGSLRLSCAASGSIFSLYTMGWYRQAPGKERELVARITTSGGTTRYADSVKGRFTISRDTSKNTVYLQMISLKPEDTAVYYCAADRSPFWRGYVRYNYWGQGTQVTVSS | high polyreactivity
QVQLVESGGGLVQAGGSLRLSCAASGFIFRNYALGWYRQAPGTERELVAAITGRGTSTYYADSVKGRFTISRDNAKNTVYLQMNSLKPEDTAVYYCAARSLALVYRKYDYWGQGTQVTVSS | high polyreactivity
QGQLVESGGGLVQAGGSLRLSCAASGSILRSYAMGWSIQAPRKVRELVATITRSAGRTYYADSVKGRFTISRDNAKNTVYLQMNSLKPEDTALYYCAACYCDTETGYREYDYWGQGTQVNVSS | low polyreactivity
QVQLVESGGGLVQAGGSLRLSCAASGLTFLKYAMGWYRQAPGKERELVAAITGSGGRTYYADSVKGRFTISRDNSKNTVYLHMNSLKPEDTAVYYCAADDYFHDDYWGLGTQVTVSS | high polyreactivity
QVQLVESGGGLVQAGGSLRLSCAASGYIFPYNAMGWYRQAPGKERELVATITWTGGSKYYADSVKGRFTISRDNAKNTVYLQMNSLKPEDTAVYDCADDLSIRYDHEYGYWGQGTQVTVSS | low polyreactivity
QVQLVASGGGLVQSGGSLRLSCAASGLTFEQYAMGWYRQAPGKERELVAAISRRGTSTYYADSVKARFTISRDYAKNYVYLQMNSRKPEDTAVYYCNAGWWYLGSPFDRDYWGQGTLVTVSS | high polyreactivity
QVKLVESGGGLVQAGGSLRLSSAASGSTFDSNAMGWYRQEPGKERELVAAITRGGSTNYADSVKGRFTISRDNAKNTVYLQMNSLKPEDTAVYYCAAASETLGYATYGSGYDYWGQGTQVTVSS | low polyreactivity
QVQLVESGGGLVQAGGSLRLICAASGSTFGVYDMGWYRKAPGKERELVAAISWRGITYYADSVKGRFTISRDNAKNTVYLQMNSLNPEDTAVYFCASYEWLAYTSAWYGYWGKGTQVTVSS | high polyreactivity
QVQLVESGGGLVQAGGSLRLSCAASGRIFATNAMGWYRQAPGKERELVAAISDGGGSTYYADSVKGRFTISRDNAKNTVYLQMNSLKPEDTAVYYCAARVLDWRGDIHDSEYWGQGTQVTVSS | low polyreactivity
QVQLVESGGGLVQAGGSLRLSFAASGGTLDVYAMGWYRQAPGKEREFVAAISWSGGRTYYADSVKGRFTISRDNAKNTVYLQMISLKPEDTAVFFCATDLYISIRYGGYYWGQGTQVTVSS | high polyreactivity
QVQLVESGGGLVQAGGSLRLSCAASGSNFLDNAMGWYRQAPGKERELVAAITSSGGSTYYADSVKGRFTISRDNAKNTVYLQMNSLKPEDTAVYYCAADEWIVHEGYYSSYYYWGQGTQVTVSS | low polyreactivity
QVQLVESGGGLVQAGGSLRLSCAASGSISWAYVMGWYRQAPGKERELVAAISSGTSTYYADSVKGRFTLSRDNAKKTVYLQMNSLKPEDTAVYYCAAYYYSYPTNGGYGYWGQGTQVTVSS | low polyreactivity
QVQLVESGGGLVQEGGSLRLSCAASGIIFQRNDMGWYRQAPGKERELVANIRDGGITYADSVKGRFTISRDNAKNTVYLQMNSLKPEDTAVYYCARDDTSPGYGDQSSNAAYYYWGQGTQVTVSS | low polyreactivity
QVQLVESGGGLVQAGGSLRLSCADSGSIFEFNTMGWYRQAPGKERELVAAISSADTTNYADSVKGRFTISRDNAKNTVYLQMNSLKPEDTAVYYCNKELHLSATLRVLGFDYWGQGTQVTVSS | low polyreactivity
QVQLVESGVGLVQAGGSLRLSCAASGIIFYPNAMGWYRQAPGKERELVAAISWRSGSTYYADSVKGRFTISRDNAKKTVYLQMNSLKPEDTAVYYCNADFWYSYGYDYWGQGTQVTVSS | low polyreactivity
QVQLVESGGGLVQAGGSLRLSCAASGRTFRVYAMGWYRQAPGKERELVAAITFNGGSTYYADSVKGRFTISRDNAKNTVYLQMNSLKPEDTAVYYCAAATRRSYDHVQMYYWGQGTQVTVSS | high polyreactivity
PVQLVESGGGLVQAGGSLRLSCAASGITFYRYMGWYRQAPGKERELVASITGRGGSTYYADSVKGRFTISRDNAKNTVYLQMNSLKPEDTAVYYCAAVFPTKSSTWYDFWGEGTQVTVSS | high polyreactivity
